Sequences and labels used below:
B1: V00011 (antibody, V domains shown)
VH: EVQLVESGGGLVKPGGSLKLSCAASGFTFSDYGMYWVRQAPEKGLEWVAYISSGSTTIYYADTVKGRFTISRDNAKNTLFLQMTSLRSEDTAMYYCAGHWYFDVWGTGTTVTVSS
VL: DVLMTQTPVSLPVSLGDQASISCRSSQSIVHSNGNTHLEWYLQKPGQSPKLLIYKVSNRFSGVPDRFSGSGSGTDFTLKISRVEAEDLGVYYCFQDSHVPWTFGGGTKLEIK
B2: V0020 (antibody, V domains shown)
VH: QVQLQQPGTDLVKPGASVKLSCKASGYTFTSYWMHWLKQRPGQGLEWIGNINPNNSDANYNEKFKSKATLTVDKSSSAAYMQLISLTSEDSAVYYCARANYYGGSQFAYWGQGTLVTVSA
VL: DVVVTQTPLSLPVSLGDQASISCRSSQSLVHSNGKTYLHWYLQKPGQSPNLLIYKVSNRFSGVPDRFSGSGSGTDFTLKISRVEAEDLGVYFCSQSTHVPFTFGSGTKLEIK
B3: V0021 (antibody, V domains shown)
VH: B2 VH with T9I, D10E, P14T, Y32N, D57E, A58T, K65R, S66K
VL: B2 VL with V4M, P12C
B4: V0047 (antibody, V domains shown)
VH: EVQLVESGGGLVKPGGSLKLSCAASGFTFSDYGMHWVRQAPEKGLEWVAYISSGSRTIYYADTVKGRFTISRDNAKNTLFLQMTSLRSEDTAMYYCARSPYAMDYWGQGTSVTVSS
VL: B2 VL with V4M, K35N, N50K, F101W, S105G
B5: V00010 (antibody, V domains shown)
VH: QIQLVQSGPELKKPGETVKISCKASGYSFTTYGMSWVKQAPGKGLKWMGWINTYSGVPTYADDFKERFAFSLETSASTAYLQINNLKNEDTSTYFCARRGGLYDGYYGYWGQGTTLTVSS
VL: DIVMSQSPSSLAVSAGEKVTMSCKSSQSLLSSRTRKNYLAWYQQKPGQSPKLLIYWASTRESGVPDRFTGSGSGTDFTLTITTVQAEDLAVYYCKQSYNLWTFGGGTKLEIK
B6: V0044 (antibody, V domains shown)
VH: DVQLQESGPGLVKPSQSLSLTCSVTGYSITTNYYWNWIRQFPGNKLEWMGYITYDGSNNYNPSLKNRISITRDTSKNQFFLKLNSVTTEDTATYYCARGPPTAYWGQGTLVTVSA
VL: NIVMTQTPKFLPIAAGDRVIMTCKASQSVGNNVGWYQLKPGQSPKLLIYFASNRYTGVPDRFTGSGSGTDFTFTISSVQVEDLAVYFCQQHYSSPLTFGAGTKLELK
B7: V0058 (antibody, V domains shown)
VH: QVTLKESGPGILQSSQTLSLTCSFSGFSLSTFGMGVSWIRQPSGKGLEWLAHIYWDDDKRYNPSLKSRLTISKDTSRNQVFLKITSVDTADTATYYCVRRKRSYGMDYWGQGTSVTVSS
VL: DIVMTQSPSSLSVSAGEKVTMSCKSSQSLLSSGNQKNYLAWYQQKPGQPPKLLIYGASTRESGVPDRFTGSGSGTDFTLTISSVQAEDLAVYYCQNDHSHPYTFGGGTKLEIK
B8: V0050 (antibody, V domains shown)
VH: EVQLQQSGPELVKPGASVKIPCRASGYTFTDYNMDWVKQSHGKTLEWIGDINPNNGGTIYNQKFKGKATLTVDKSSSTAYMELRSLTSEDTAVYYCARGRGMGYYALDYWGQGTSVTVSS
VL: DIQMTQSPASLSASVGETVTFTCGASENVYGALNWYQRKQGKSPQLLIYGATNLADGMSSRFSGSGSGRQYSLKISSLHPDDVATYYCQNVLTIPWTFGGGAKLEIK
B9: V0057 (antibody, V domains shown)
VH: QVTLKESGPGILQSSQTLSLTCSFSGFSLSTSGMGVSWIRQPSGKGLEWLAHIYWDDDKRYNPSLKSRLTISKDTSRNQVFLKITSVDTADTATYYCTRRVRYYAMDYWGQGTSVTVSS
VL: B7 VL with S31N
B10: V0055 (antibody, V domains shown)
VH: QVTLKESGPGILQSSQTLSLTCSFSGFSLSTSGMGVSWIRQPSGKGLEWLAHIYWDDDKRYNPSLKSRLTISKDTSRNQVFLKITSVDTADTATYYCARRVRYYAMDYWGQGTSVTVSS
VL: B7 VL with S31N
B11: V0054 (antibody, V domains shown)
VH: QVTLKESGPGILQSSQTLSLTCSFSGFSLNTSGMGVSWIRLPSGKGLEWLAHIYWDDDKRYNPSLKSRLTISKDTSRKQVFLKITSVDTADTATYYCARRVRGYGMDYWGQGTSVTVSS
VL: B7 VL with S31N, A57T

Where a chain is given by its changes, count along the chain named.

The target of the first test is enriched paired helical filament tau protein (ePHF) (human, phosphorylated residues of pathological tau, sites not stated). Put plainly: direct ELISA. As to the method:
Variable domain nucleic acid sequences from antibodies obtained from immunizations described above were used to prepare recombinant mouse IgG antibodies. These candidate antibodies were analyzed for binding to ePHF and specificity for ePHF over wild type tau by direct ELISA.
For direct ePHF and wildtype tau ELISA, plates were first coated with ePHF or wild type tau. Antigen solutions were prepared in PBS and 50 μL were pipetted into each well. Plates were covered and incubated for one hour at 37° C. or overnight at 4° C. Plates were then washed and blocked by addition of 150 μl of blocking buffer to each well and incubated one hour at room temperature. Plates were then washed before addition of serially diluted candidate antibody samples prepared in blocking buffer. Detection of candidate antibody binding was carried out by washing plates and adding a solution of enzyme-labeled secondary antibody in blocking buffer to each well. Secondary antibody binding was detected by addition of substrate and spectrophotometric analysis of resulting reaction product.
The EC50 is the concentration giving half of the maximal effect. High values mean a need for much substance, low ones an effect from little substance. Turning to B1, the EC50 was determined as 0.171 nM. The molecule B2 showed an EC50 of 0.351 nM.

Take B3: the response was half-maximal at 0.571 nM (EC50). Molecule B4 gave an EC50 of 0.118 nM. Against the preceding molecule, the EC50 is about 4.8-fold lower. B5: the midpoint of the response, the EC50, lay at 0.134 nM.

Take B6: the EC50 came out at 0.209 nM.

Consider B7, for which it took 2.45 nM to reach a half-maximal effect (EC50). As for B8, a half-maximal response (EC50) required 17.9 nM.

The target of another test is iPHF (Homo sapiens (Human), UniProt P10636-8). Nature of the test: Octet, antibody on biosensor tips. On the procedure: Anti-human tau antibodies were assessed for affinity for iPHF by Octet (ForteBio, Menlo Park, CA) analysis. Recombinant mouse IgG antibodies were prepared with clone-specific variable domain pairs selected from those presented in Table 3 and mouse IgG1 constant domains. Candidate antibodies were immobilized on biosensor tips (ForteBio) in kinetic buffer (ForteBio). Biosensor tips were then washed before introduction of a solution of iPHF in kinetic buffer for analysis of association and dissociation with candidate antibodies. Affinity measurements (K_D) were obtained using Data Analysis HT version 11.1 and corrected for background and high-frequency noise.
(In general: In BLI a coated tip is dipped into the sample, and binding shifts an interference pattern.)
Usually Kd stands for the concentration at which binding is half-saturated. A low value points to a tighter complex. The molecule B2 yielded a Kd of 32.7 nM. B3 showed a Kd of 15.1 nM. Molecule B7 showed a Kd of 1 nM. This Kd lies about 15-fold lower than the previous one. B9 registered a Kd of 17.4 nM. Take B10: the Kd turned out to be 1.3 nM.

With B11, the Kd is 105 nM.

B8 yielded a Kd of 0.4 nM.

These data come from patent publication US12709641B2, “Tau binding compounds” (VOYAGER THERAPEUTICS, INC., dated 2026).
